# Test results taken from a protein production outcome set (Wang et al. 2014).
# Test: label from the status in PepcDB records
row,Sequence,protein production
1,MMYPYVRLFMEMRRARRLDPLPVLGTHRSSHRCLPWDLAPWRELNNGRTLTLFDLGRAPLLVRTGMQRICSEKGWGMTVAGSSVRYRRRVVLMERLEMVSRCLGWDGRFFYMEQSLWRKGDCTSHMLLRAATTTGSGIVPPAEVAAALGAGESPPLPDWAQAWIEADALRPWPPAALEHHHHHH,failed
2,MMYRNQCTAKEKLMNRINEVSFAVNDVLLYLDTHPCCEEAISFYQECEQERQKLLKEYAQCYGPLTVDAALESGGDTWKWVQQPFPWETEGGCRLEHHHHHH,not failed
3,MNADYFFNQGLSDNLSREYQRTVVGGTKPTNRRIDAETYCKRGITFSRELKDYQGAIAFFNLAVEINPNYAQAYYHRANARYCLADFTAAIADYDQALQINPTFAEYYYCRGNAYLAQGDYDQAIANYISTIEFDPLLASNINEDIANAYYYRGLNNNDQGNYQEAIIDLQQALQWHPYFAAAYSIRGNIYYKLGEYRQAIADHERAVQLDPNLAEAYQNRGNAHYALGAYQKAIADYNRTLEINPHQVGAYYNRGLISFYLHEYQQAFADFNQVLNFNPNDAQAYYQRGLIYEAWQDYQSALADYNQSLQLNSELAVVYGVRANIYRHLGDYPSALADGNRLLELQPNFAAGYCDRATSRRCLGDYRGAIADYNQALQINPNIAEAYYGRAIAHEALRDFIGAIADYTQSIRISPDFAPAYCNRGNARRQLGDTKGAVTDYNQALTINPQLSEAYYNRGSLHYDQQNYRSAIADYTQALELQPESARYYSDRAHARYALQDYQGAVADYTQSIAINPGYAEDWYNRGRSHLLLGYLEEALADLNQALKFHPHWASAYLLRADILRNRGDYQAAIADFQKSADLYSQEGNTQNYQQILEIIAGLK,failed
4,MNAENNQTTTTHSKVISHVFCTGTAKLGSVGPPIGLVDIGVSEVAYIFRVSLPGIEKNQDKIKCEIQREGRVCIQGVIPEIAIPSDTGCLYRMQVQQLCPPGPFSITFNLPGQVDPRLFSPNFRSDGIFEVVVVKLGVRIPTS,failed
5,MNAIILAAGFGSRLMPLTKDQPKCMVEYKNKKIIDYEIEALKSAGINEIAVVGGYLNDVLKNYLNKYDIEHFFINSKYDKTNMVHTFFCAKDFMLKCIEEKQDLIISYADIVYFQDCVQKLINAKEELAIVVDKSWCKLWSKRFANPLEDAETLKMTNGYIIELGKKANAYDEIEAQYIGLFKFSYQFLSEVIAFYEMLDRDILYDNKNFENMYMTSFLQALIEKYNNAKAVEIDGNWCEIDFMSDLEVQIEKLEHHHHHH,failed
6,MNAIISPDYYYVLTVAGQSNAMAYGEGLPLPDREDAPHPRIKQLARFAHTHPGGPSCHFNDIIPLTHCPHDVQDMQSYHHPLATNHQTQYGTVGQALHIARKLLPFIPDNAGILIVPCCRGGSAFTAGSEGTYSERHGASHDACRWGTDTPLYQDLVSRTRAALVKNPQNKFLGVCWMQGEFDLMTSDYASHPQHFNHMVEAFRRDLKQYHSQLNNITDAPWFCGDTTWYWKENFPHAYEAIYGNYQNNILANIIFVDFQQQGARGLTNAPDEDPDDLSTGYYGSAYRSPENWTTAXRSSHFSSAARRGIISDRFVEAILQFWRER,not failed
7,MNAKPKDTVIANARIVLADRVIEQGWLALANGRVAEIGEGRAPAGAEDAGGDLIMPGLIELHTDHLEAHYVPRPKVFWNPVAAVVSYDGQLATSGITTVFDSLRVWREDGAEEVDGRAGVLAAAITTARDADLLRADHFLHLRCEIPMPSVVEEAKELIDRPDVKLMSLMDHTPGQRQFRDEGKLRDYYRGKNGGKTDAQLDELFAKRFEYQKAYAATNMREIVALAHQYNIPLASHDDTTEENVADAVRDRVSVAEFPTTLEAARGLHQAGIDILMGAPNVVRGGSHSGNIAAVDLAREGLLDILSSDYIPSSLLMAALQLPEHVPAISLPAAVRTVTKAPAEAVGLSDRGEIAVGKRADLIRVHIAGSVPVVRSVWREGGRVA,failed
